Values quoted from earlier work, collected in publication PMC3749945.

Target: Cdc42 (Homo sapiens) (UniProt P60953)
UniProt P60953, sequence (P60953 1-188): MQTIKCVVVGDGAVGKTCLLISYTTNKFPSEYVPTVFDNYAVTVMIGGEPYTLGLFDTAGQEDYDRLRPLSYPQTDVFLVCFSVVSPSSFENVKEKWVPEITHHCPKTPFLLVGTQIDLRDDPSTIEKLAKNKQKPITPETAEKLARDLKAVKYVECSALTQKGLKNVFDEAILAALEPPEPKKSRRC

In the case of WASP (from UniProt P42768), the Kd is listed as 74 nM.
